The values below come from the RNAGym collection of RNA variant scans (doi:10.7554/elife.90254).

B1: LINE1-full (parent)
chain: UACGUAGGUGGUUUUCCCCUGAUAGUGCUAAGGGGGCCUGGAAGUUUGGACUGGGCAGAGCUCAACACAGCGUGGCAAAGUGGCUGUGGCUAGACUGCCUCUCUGGAUUCCUCGUCACUCAGCAGGGCAUCUCUGAGAGAAAUGCC

The variants in this data set derive from B1. In words: self-cleavage, relative activity (ratio to wild type); higher = more cleavage; in vitro, sequencing; the parent is a self-cleaving ribozyme.
For the variant A30G G106U, the self-cleavage is 0.83.
The value for A30C G122A was 1.02.
In the case of C28G A65U, the self-cleavage was found to be 0.
The value for U29C U143C was 1.75.
The value for U26G G139A was 1.47; that for U29A A42G was 1.65.
To U29C A50G belongs 0.82; to A30U A94U, 0.34; to A30U A94C, 0.
As to A30G A94G, the self-cleavage is 0.34.
To A30G A94U belongs 0.64.
The value for G27U U47C was 0.88; that for U29C U91C was 1.38; that for A30G G48A was 0.5.
The value for A30G A142G was 1.07.
With A30G A142U, the self-cleavage is 0.99.
The value for A30G U85C was 0.45; that for C28A A77U was 1.42.
As for U29C A79U, the self-cleavage came out at 2.16.
On to U29C A79G, for which the self-cleavage is 1.16.
To C28A A64G belongs 0.28; to C28A U39A, 1.54.
With C28U, the self-cleavage stood at 1.08.
The value for C28A was 1.07.
C28G: the self-cleavage stood at 0.98.
The value for U29C U73A was 1.59.
To U29A U104A belongs 1.26; to A30G U100A, 1.59; to A30G U100C, 1.07.
To C28U A107G belongs 0.88.
As to U26G U108A, the self-cleavage was 1.03.
Consider U26G U108C, for which the self-cleavage is 1.41.
For U29C A117U, the self-cleavage was found to be 1.51.
Regarding U29C A141G, the self-cleavage came to 1.27.
As to U29G U115C, the self-cleavage turned out to be 0.63.
Regarding U29G A64G, the self-cleavage amounted to 0.6.
To U26G A57G belongs 0.82; to A30G U47C, 1.09.
The value for A30G U47A was 1.57.
Regarding A30G G75A, the self-cleavage was 1.05.
To C28U A59G belongs 0.09.
A30C A136U: the self-cleavage was 1.19.
On to U29C A31U, for which the self-cleavage stood at 1.
For the variant U29G C99A, the self-cleavage worked out at 0.42.
The value for U29C U109A was 1.28; that for G27A G34A was 0.64.
To U29C A121G belongs 1.43; to C28A A92G, 0.12.
The value for G27A A138C was 1.18; that for G27A A42G was 0.99.
As to A30G U134A, the self-cleavage was 1.05.
The value for A30G U134C was 1.13; that for A30U A69G was 0.4.
As for A30G A129U, the self-cleavage stood at 0.89.
The value for U29A A138G was 1.11; that for C28A G36A was 1.9; that for U29A G35U was 1.16.
To U29A A121C belongs 0.84; to C28U U81A, 1.44; to C28U U81C, 1.39.
The value for A30C A50G was 1.21; that for G27A A30U was 1.58.
Regarding U29C A142G, the self-cleavage turned out to be 1.38.
To U29C A142U belongs 0.86; to U29C A142C, 1.06; to C28U U47G, 0.7.
To U29A U85A belongs 0.12; to U29A U85C, 0.29.
Consider U29C U46C, for which the self-cleavage was determined as 1.36.
To A30U A59G belongs 0.22.
The value for A30G U115C was 1.12; that for G27U C61U was 0.06; that for U29C U39G was 0.51.
To U29C U39C belongs 1.74; to C28A G32A, 0.7; to U26G A31U, 1.16.
For U29C U96A, the self-cleavage amounted to 0.15.
The value for U29C U96C was 0.24; that for A30G A141U was 1.06.
To A30G A141C belongs 0.82; to A30U A67U, 0.1; to A30G G139A, 1.31.
To A30G G36C belongs 1.25; to C28A U47C, 0.63.
Take U26C U115A: the self-cleavage is 1.33.
The value for U26C U115C was 1.84.
To U29A A65U belongs 0.23; to A30G G135A, 1.4.
The value for U29A G41A was 1.7; that for U26G A78G was 1.31.
U29A U87G: the self-cleavage was determined as 0.12.
To U29A U87C belongs 0.22.
The value for U26C U102C was 1.22; that for U26C U102A was 1.31; that for U29G U87C was 0.19.
To A30G U87C belongs 0.11.
With U29A A107G, the self-cleavage amounted to 1.56.
As to U26G U73A, the self-cleavage came to 1.61.
To U26G U73C belongs 0.96; to U29C A136G, 0.92; to U29C U108G, 1.2.
The value for U29C A64U was 0.54; that for C28U C101U was 1.06; that for U29A G74A was 0.59.
Consider U29A A92G, for which the self-cleavage stood at 0.
As to A30G G126C, the self-cleavage was 1.72.
To C28A A57G belongs 1.53.
The value for U29A G126A was 0.75; that for U26G A50G was 0.56.
The value for U29A U108C was 2.61; that for U29C G105A was 1.13.
On to U29A U39G, for which the self-cleavage was 1.58.
The value for A30G A117U was 1.17; that for U29C C116A was 1.16; that for A30G A78U was 1.44.
The value for A30G A78G was 1.34; that for A30G A59U was 0.78; that for A30G A43G was 0.78.
Turning to U29A A50G, the self-cleavage amounted to 0.51.
The value for U29A A50U was 0.89; that for U26G U143A was 0.68.
To A30G A136U belongs 0.55.
For the variant U29A U134A, the self-cleavage amounted to 1.19.
To U29A A78U belongs 1.48; to U29A C145U, 0.61.
To U26G A77G belongs 2.53; to G27U U132A, 1.23; to C28U U115G, 1.3.
The value for U26G A69G was 0.17.
For the variant U29C G144A, the self-cleavage came to 1.22.
To A30G A31G belongs 1.15.
To G27A U102A belongs 1.12; to G27A U29C, 0.79; to C28U A141G, 1.53.
To G27A U115C belongs 1.54; to A30G C90U, 0.07.
On to A30G C66U, for which the self-cleavage is 0.05.
The value for U29C G82A was 1.44.
The value for A30G U45C was 1.38.
The value for U29C G32A was 1.08; that for A30G C84G was 0.17.
For A30G C84A, the self-cleavage worked out at 0.22.
To C28G C128U belongs 1.8; to A30G U102G, 1.84; to C28G U100A, 0.81.
The value for C28U C123U was 1.03; that for A30G A57U was 0.27; that for A30G A57C was 0.
To U29C G41A belongs 1.32.
For U29C G41U, the self-cleavage came to 0.65.
The value for C28G U39C was 0.82.
The value for U29A A67G was 0.67; that for U29C C98U was 0.42; that for G27C U100C was 1.13.
U29C A78U: the self-cleavage came out at 2.53.
The value for U29A U100A was 0.91.
The value for C28U A50G was 1.09; that for U29C C68U was 0.4; that for U26G G105A was 1.06.
For the variant U29C C131U, the self-cleavage is 0.93.
For the variant G27U G82A, the self-cleavage was 1.51.
The value for C28A U108C was 1.82.
To U29G A107G belongs 2.23; to C28G A77G, 0.89; to A30G U46A, 0.84.
To A30G U46C belongs 1.06.
Consider U29A U96C, for which the self-cleavage came out at 0.13.
